Columns and labels:
antithrombin = antithrombin (UniProt P01008); test: SPR
[1] = target: tissue factor pathway inhibitor alpha (human) (UniProt P10646); test: SPR
Sequence of UniProt P10646 (P10646 29-304): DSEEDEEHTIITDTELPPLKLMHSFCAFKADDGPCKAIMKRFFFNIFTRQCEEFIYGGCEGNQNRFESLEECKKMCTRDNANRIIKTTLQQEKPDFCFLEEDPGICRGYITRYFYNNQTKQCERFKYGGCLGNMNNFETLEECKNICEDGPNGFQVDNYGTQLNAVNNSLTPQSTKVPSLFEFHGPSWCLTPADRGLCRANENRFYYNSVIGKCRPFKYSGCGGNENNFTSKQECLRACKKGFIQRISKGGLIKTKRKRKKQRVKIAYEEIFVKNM

Sequence of UniProt P01008 (P01008 33-464): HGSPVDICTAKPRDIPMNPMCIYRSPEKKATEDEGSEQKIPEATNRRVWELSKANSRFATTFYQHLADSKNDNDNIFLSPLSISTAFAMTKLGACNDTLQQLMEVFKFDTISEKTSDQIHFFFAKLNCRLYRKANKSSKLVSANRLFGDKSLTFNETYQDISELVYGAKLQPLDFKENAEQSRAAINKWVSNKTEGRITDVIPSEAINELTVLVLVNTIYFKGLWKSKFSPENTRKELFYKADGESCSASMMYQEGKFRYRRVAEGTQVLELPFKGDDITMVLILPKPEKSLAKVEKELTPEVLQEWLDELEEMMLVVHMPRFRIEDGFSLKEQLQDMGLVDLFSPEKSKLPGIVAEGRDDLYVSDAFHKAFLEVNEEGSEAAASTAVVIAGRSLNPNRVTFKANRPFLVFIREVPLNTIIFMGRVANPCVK

Q: For “K96YS195A GD-FXa (from UniProt P00742 82-182; P00742 235-488) (domain or fragment)”, which Kd (antithrombin) is on record?
A: 460 nM

Q: Which Kd [1] does the source give for “S195A Gla-domainless factor Xa (from UniProt P00742 82-182; P00742 235-488) (domain or fragment)” here?
A: 2 nM

Q: What about the Kd (antithrombin) of the same substance?
A: 416 nM

Source: paper PMC10568284
